Test results taken from US20240018502A1.

Target: plasma purified human complement protein C3 (human) (UniProt P01024)
Test: cell-based or functional assay

plasma purified human complement protein C3 (human), sequence (P01024 23-667, chain 1 of 2): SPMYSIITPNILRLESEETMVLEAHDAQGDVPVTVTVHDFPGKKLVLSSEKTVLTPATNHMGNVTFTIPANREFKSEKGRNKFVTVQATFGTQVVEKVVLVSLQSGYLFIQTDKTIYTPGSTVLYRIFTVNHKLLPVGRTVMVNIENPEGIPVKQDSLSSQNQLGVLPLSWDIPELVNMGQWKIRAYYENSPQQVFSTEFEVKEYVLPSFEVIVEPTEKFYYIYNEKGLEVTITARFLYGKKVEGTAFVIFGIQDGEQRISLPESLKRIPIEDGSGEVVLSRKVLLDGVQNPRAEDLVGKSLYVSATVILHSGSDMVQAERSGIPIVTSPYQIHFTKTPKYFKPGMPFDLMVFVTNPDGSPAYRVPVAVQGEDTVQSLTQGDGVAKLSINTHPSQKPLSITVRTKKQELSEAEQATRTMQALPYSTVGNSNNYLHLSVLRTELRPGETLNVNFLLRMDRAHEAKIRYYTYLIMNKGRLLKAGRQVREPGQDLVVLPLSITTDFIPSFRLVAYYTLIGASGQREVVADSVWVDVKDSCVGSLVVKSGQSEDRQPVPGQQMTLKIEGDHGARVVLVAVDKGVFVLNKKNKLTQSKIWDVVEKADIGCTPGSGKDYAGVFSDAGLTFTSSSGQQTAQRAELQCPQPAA
plasma purified human complement protein C3 (human), sequence (P01024 672-1663, chain 2 of 2): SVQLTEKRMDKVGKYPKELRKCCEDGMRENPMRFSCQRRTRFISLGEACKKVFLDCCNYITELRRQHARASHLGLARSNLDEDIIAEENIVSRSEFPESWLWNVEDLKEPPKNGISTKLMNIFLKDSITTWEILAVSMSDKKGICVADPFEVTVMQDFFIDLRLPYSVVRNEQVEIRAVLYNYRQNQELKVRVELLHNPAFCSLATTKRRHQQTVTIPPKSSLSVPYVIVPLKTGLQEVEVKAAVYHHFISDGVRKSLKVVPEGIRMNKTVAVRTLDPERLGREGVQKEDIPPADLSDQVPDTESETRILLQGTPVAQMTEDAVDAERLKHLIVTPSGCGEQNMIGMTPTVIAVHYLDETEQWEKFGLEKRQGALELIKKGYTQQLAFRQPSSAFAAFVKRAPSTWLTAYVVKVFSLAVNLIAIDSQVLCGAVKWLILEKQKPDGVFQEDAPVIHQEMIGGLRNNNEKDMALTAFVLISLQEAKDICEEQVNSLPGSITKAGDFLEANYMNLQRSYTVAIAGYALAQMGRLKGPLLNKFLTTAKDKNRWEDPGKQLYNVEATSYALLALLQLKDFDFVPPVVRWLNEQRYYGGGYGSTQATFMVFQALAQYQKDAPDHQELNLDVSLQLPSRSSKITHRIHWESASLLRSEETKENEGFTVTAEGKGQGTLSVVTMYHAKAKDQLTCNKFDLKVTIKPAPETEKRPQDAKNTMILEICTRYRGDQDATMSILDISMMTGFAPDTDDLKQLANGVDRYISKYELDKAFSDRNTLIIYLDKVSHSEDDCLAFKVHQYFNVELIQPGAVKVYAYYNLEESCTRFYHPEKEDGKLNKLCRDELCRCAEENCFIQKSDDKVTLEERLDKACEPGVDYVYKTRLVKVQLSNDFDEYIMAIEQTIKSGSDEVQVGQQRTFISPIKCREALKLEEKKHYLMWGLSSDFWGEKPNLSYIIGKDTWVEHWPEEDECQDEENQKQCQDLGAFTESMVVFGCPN

Row | EC50 of hC3 cleavage | EC50 hC3 cleavage | Binder
1 | – | 25.6 nM | MTSP-1 protease domain Q38H/I41S/D96K/ins97aS/C122S/G151P/Q192S (enzyme) VVGGTDADEGEWPWQVSLHALGHGHSCGASLISPNWLVSAAHCYIDDRGFRYSDPTQWTAFLGLHDQSQRSAPGVQERRLKRIISHPFFNKFSTFDYDIALLELEKPAEYSSMVRPISLPDASHVFPAGKAIWVTGWGHTQYGGTPALILQKGEIRVINQTTCENLLPQQITPRMMCVGFLSGGVDSCSGDSGGPLSSVEADGRIFQAGVVSWGDGCAQRNKPGVYTRLPLFRDWIKENTGV
2 | – | 8.22 nM | MTSP-1 protease domain I41S/Y59F/F97S/ins97aV/S116Y/C122S/Q192G/D217V (enzyme) VVGGTDADEGEWPWQVSLHALGQGHSCGASLISPNWLVSAAHCFIDDRGFRYSDPTQWTAFLGLHDQSQRSAPGVQERRLKRIISHPFFNDSVTFDYDIALLELEKPAEYSYMVRPISLPDASHVFPAGKAIWVTGWGHTQYGGTGALILQKGEIRVINQTTCENLLPQQITPRMMCVGFLSGGVDSCGGDSGGPLSSVEADGRIFQAGVVSWGVGCAQRNKPGVYTRLPLFRDWIKENTGV
3 | – | 25.6 nM | MTSP-1 protease domain I41S/Y59F/ins97aV/C122S/Q192G (enzyme) VVGGTDADEGEWPWQVSLHALGQGHSCGASLISPNWLVSAAHCFIDDRGFRYSDPTQWTAFLGLHDQSQRSAPGVQERRLKRIISHPFFNDFVTFDYDIALLELEKPAEYSSMVRPISLPDASHVFPAGKAIWVTGWGHTQYGGTGALILQKGEIRVINQTTCENLLPQQITPRMMCVGFLSGGVDSCGGDSGGPLSSVEADGRIFQAGVVSWGDGCAQRNKPGVYTRLPLFRDWIKENTGV
4 | – | 26.8 nM | MTSP-1 protease domain Q38H/I41S/D96K/ins97aD/C122S/G151N/Q192S (enzyme) VVGGTDADEGEWPWQVSLHALGHGHSCGASLISPNWLVSAAHCYIDDRGFRYSDPTQWTAFLGLHDQSQRSAPGVQERRLKRIISHPFFNKFDTFDYDIALLELEKPAEYSSMVRPISLPDASHVFPAGKAIWVTGWGHTQYGGTNALILQKGEIRVINQTTCENLLPQQITPRMMCVGFLSGGVDSCSGDSGGPLSSVEADGRIFQAGVVSWGDGCAQRNKPGVYTRLPLFRDWIKENTGV
5 | – | 34.6 nM | MTSP-1 protease domain Q38H/I41S/D96G/ins97aG/C122S/G151N/Q192A (enzyme) VVGGTDADEGEWPWQVSLHALGHGHSCGASLISPNWLVSAAHCYIDDRGFRYSDPTQWTAFLGLHDQSQRSAPGVQERRLKRIISHPFFNGFGTFDYDIALLELEKPAEYSSMVRPISLPDASHVFPAGKAIWVTGWGHTQYGGTNALILQKGEIRVINQTTCENLLPQQITPRMMCVGFLSGGVDSCAGDSGGPLSSVEADGRIFQAGVVSWGDGCAQRNKPGVYTRLPLFRDWIKENTGV
6 | – | 8.35 nM | MTSP-1 protease domain I41S/Y59F/ins97aV/C122S/G187D/Q192V/D217V (enzyme) VVGGTDADEGEWPWQVSLHALGQGHSCGASLISPNWLVSAAHCFIDDRGFRYSDPTQWTAFLGLHDQSQRSAPGVQERRLKRIISHPFFNDFVTFDYDIALLELEKPAEYSSMVRPISLPDASHVFPAGKAIWVTGWGHTQYGGTGALILQKGEIRVINQTTCENLLPQQITPRMMCVGFLSGDVDSCVGDSGGPLSSVEADGRIFQAGVVSWGVGCAQRNKPGVYTRLPLFRDWIKENTGV
7 | – | 33.4 nM | MTSP-1 protease domain I41S/ins97aV/C122S/Q192G/Q209L (enzyme) VVGGTDADEGEWPWQVSLHALGQGHSCGASLISPNWLVSAAHCYIDDRGFRYSDPTQWTAFLGLHDQSQRSAPGVQERRLKRIISHPFFNDFVTFDYDIALLELEKPAEYSSMVRPISLPDASHVFPAGKAIWVTGWGHTQYGGTGALILQKGEIRVINQTTCENLLPQQITPRMMCVGFLSGGVDSCGGDSGGPLSSVEADGRIFLAGVVSWGDGCAQRNKPGVYTRLPLFRDWIKENTGV

More lines, now with the values behind:

Row | Binder | EC50 of hC3 cleavage | EC50 hC3 cleavage
8 | MTSP-1 Q38H/I41S/D60bT/F60eS/Y60gW/D96K/F97G/T98P/F99L/C122S/G151H/Q175L/Q192D (enzyme) VVGGTDADEGEWPWQVSLHALGHGHSCGASLISPNWLVSAAHCYIDTRGSRWSDPTQWTAFLGLHDQSQRSAPGVQERRLKRIISHPFFNKGPLDYDIALLELEKPAEYSSMVRPISLPDASHVFPAGKAIWVTGWGHTQYGGTHALILQKGEIRVINQTTCENLLPQLITPRMMCVGFLSGGVDSCDGDSGGPLSSVEADGRIFQAGVVSWGDGCAQRNKPGVYTRLPLFRDWIKENTGV | 7.88 nM | –
9 | MTSP-1 protease domain I41S/F93L/ins97aV/C122S/Q192V/D217V (enzyme) VVGGTDADEGEWPWQVSLHALGQGHSCGASLISPNWLVSAAHCYIDDRGFRYSDPTQWTAFLGLHDQSQRSAPGVQERRLKRIISHPLFNDFVTFDYDIALLELEKPAEYSSMVRPISLPDASHVFPAGKAIWVTGWGHTQYGGTGALILQKGEIRVINQTTCENLLPQQITPRMMCVGFLSGGVDSCVGDSGGPLSSVEADGRIFQAGVVSWGVGCAQRNKPGVYTRLPLFRDWIKENTGV | – | 9.82 nM
10 | MTSP-1 protease domain I41S/D96E/ins97aG/C122S/G151Q/Q192A (enzyme) VVGGTDADEGEWPWQVSLHALGQGHSCGASLISPNWLVSAAHCYIDDRGFRYSDPTQWTAFLGLHDQSQRSAPGVQERRLKRIISHPFFNEFGTFDYDIALLELEKPAEYSSMVRPISLPDASHVFPAGKAIWVTGWGHTQYGGTQALILQKGEIRVINQTTCENLLPQQITPRMMCVGFLSGGVDSCAGDSGGPLSSVEADGRIFQAGVVSWGDGCAQRNKPGVYTRLPLFRDWIKENTGV | – | 44.4 nM
11 | MTSP-1 protease domain I41S/S90T/ins97aV/C122S/Q192V/D217V (enzyme) VVGGTDADEGEWPWQVSLHALGQGHSCGASLISPNWLVSAAHCYIDDRGFRYSDPTQWTAFLGLHDQSQRSAPGVQERRLKRIITHPFFNDFVTFDYDIALLELEKPAEYSSMVRPISLPDASHVFPAGKAIWVTGWGHTQYGGTGALILQKGEIRVINQTTCENLLPQQITPRMMCVGFLSGGVDSCVGDSGGPLSSVEADGRIFQAGVVSWGVGCAQRNKPGVYTRLPLFRDWIKENTGV | – | 10.5 nM
12 | MTSP-1 protease domain I41S/S90T/ins97aV/C122S/Q192N/D217V (enzyme) VVGGTDADEGEWPWQVSLHALGQGHSCGASLISPNWLVSAAHCYIDDRGFRYSDPTQWTAFLGLHDQSQRSAPGVQERRLKRIITHPFFNDFVTFDYDIALLELEKPAEYSSMVRPISLPDASHVFPAGKAIWVTGWGHTQYGGTGALILQKGEIRVINQTTCENLLPQQITPRMMCVGFLSGGVDSCNGDSGGPLSSVEADGRIFQAGVVSWGVGCAQRNKPGVYTRLPLFRDWIKENTGV | – | 13.4 nM
13 | MTSP-1 protease domain I41S/S90P/ins97aV/C122S/Y146E/Q192N/D217V (enzyme) VVGGTDADEGEWPWQVSLHALGQGHSCGASLISPNWLVSAAHCYIDDRGFRYSDPTQWTAFLGLHDQSQRSAPGVQERRLKRIIPHPFFNDFVTFDYDIALLELEKPAEYSSMVRPISLPDASHVFPAGKAIWVTGWGHTQEGGTGALILQKGEIRVINQTTCENLLPQQITPRMMCVGFLSGGVDSCNGDSGGPLSSVEADGRIFQAGVVSWGVGCAQRNKPGVYTRLPLFRDWIKENTGV | – | 6.47 nM
14 | MTSP-1 Q38H/I41S/D60bT/F60eS/Y60gW/D96K/F97G/ins97aV/F99L/C122S/G151H/Q175L/Q192D (enzyme) VVGGTDADEGEWPWQVSLHALGHGHSCGASLISPNWLVSAAHCYIDTRGSRWSDPTQWTAFLGLHDQSQRSAPGVQERRLKRIISHPFFNKGVTLDYDIALLELEKPAEYSSMVRPISLPDASHVFPAGKAIWVTGWGHTQYGGTHALILQKGEIRVINQTTCENLLPQLITPRMMCVGFLSGGVDSCDGDSGGPLSSVEADGRIFQAGVVSWGDGCAQRNKPGVYTRLPLFRDWIKENTGV | 9.83 nM | –
15 | MTSP-1 protease domain A35V/I41S/Y59F/C122S/Q192D/D217V (enzyme) VVGGTDADEGEWPWQVSLHVLGQGHSCGASLISPNWLVSAAHCFIDDRGFRYSDPTQWTAFLGLHDQSQRSAPGVQERRLKRIISHPFFNDFTFDYDIALLELEKPAEYSSMVRPISLPDASHVFPAGKAIWVTGWGHTQYGGTGALILQKGEIRVINQTTCENLLPQQITPRMMCVGFLSGGVDSCDGDSGGPLSSVEADGRIFQAGVVSWGVGCAQRNKPGVYTRLPLFRDWIKENTGV | – | 39.8 nM
